The source of these data is the Immune Epitope Database (IEDB).

The Kd is the concentration at which binding is half-saturated. A low value points to higher affinity. By IC50 is commonly meant the concentration that gives 50% inhibition.

Test [1] addresses HLA-B*15:42. The test is described as follows: IEDB peptide-MHC binding, purified MHC/competitive/fluorescence; filed as Kd, often an IC50 or EC50 that approximates it; ≥ and ≤ were set here for values at or beyond the usual limits of such assays. The following applies: source organism: Acetivibrio thermocellus ATCC 27405.
For test [2], the target named is HLA-B*45:06. The description is as above. The following applies: source organism: Acetivibrio thermocellus ATCC 27405.
The target of test [3] is HLA-B*83:01. Described as above. The following applies: source organism: Acetivibrio thermocellus ATCC 27405.
Test [4] concerns the target HLA-C*04:01. The description is as above. To be noted: source organism: Acetivibrio thermocellus ATCC 27405.
Test [5] concerns the target HLA-B*27:05. The test is described as follows: IEDB peptide-MHC binding, cellular MHC/competitive/radioactivity; ≥ and ≤ were set here for values at or beyond the usual limits of such assays. The following applies: source organism: Hepacivirus hominis.
For test [6], the target named is HLA-A*01:01. The test is described as follows: IEDB peptide-MHC binding, purified MHC/direct/fluorescence; filed as Kd, often an IC50 or EC50 that approximates it; ≥ and ≤ were set here for values at or beyond the usual limits of such assays. To be noted: source organism: Vibrio vulnificus.
The target in test [7] is HLA-A*02:01. Described as above. To be noted: source organism: Vibrio vulnificus.
The target in test [8] is HLA-A*02:03. The description is as above. The following applies: source organism: Vibrio vulnificus CMCP6.
In test [9] the target is HLA-A*02:06. The description is as above. The following applies: source organism: Vibrio vulnificus CMCP6.
Test [10] addresses HLA-A*02:11. Described as above. To be noted: source organism: Vibrio vulnificus CMCP6.
Test [11] deals with HLA-A*02:12. Described as above. To be noted: source organism: Vibrio vulnificus CMCP6.
The target in test [12] is HLA-A*02:19. The description is as above. To be noted: source organism: Vibrio vulnificus CMCP6.
The target in test [13] is HLA-A*03:01. The description is as above. To be noted: source organism: Vibrio vulnificus.
The target in test [14] is HLA-A*11:01. The test is described as above. To be noted: source organism: Vibrio vulnificus.
The target of test [15] is HLA-A*24:02. The test is described as above. The following applies: source organism: Vibrio vulnificus.
Test [16] has as its target HLA-A*31:01. Described as above. To be noted: source organism: Vibrio vulnificus.
The target of test [17] is HLA-A*69:01. The description is as above. To be noted: source organism: Vibrio vulnificus.
Test [18] addresses HLA-B*07:02. The test is described as above. To be noted: source organism: Vibrio vulnificus.
In test [19] the target is HLA-B*08:01. The test is described as above. The following applies: source organism: Vibrio vulnificus CMCP6.
The target in test [20] is HLA-B*08:02. The description is as above. The following applies: source organism: Vibrio vulnificus CMCP6.
The target in test [21] is HLA-B*15:01. Described as above. To be noted: source organism: Vibrio vulnificus.
For test [22], the target named is HLA-B*18:01. The description is as above. To be noted: source organism: Vibrio vulnificus.
The target in test [23] is HLA-B*27:05. Described as above. The following applies: source organism: Vibrio vulnificus.
Test [24] addresses HLA-B*40:01. Described as above. To be noted: source organism: Vibrio vulnificus.
The target of test [25] is HLA-B*44:02. The description is as above. The following applies: source organism: Vibrio vulnificus.
Test [26] addresses HLA-B*46:01. Described as above. To be noted: source organism: Vibrio vulnificus.
For test [27], the target named is HLA-B*58:01. The description is as above. The following applies: source organism: Vibrio vulnificus.
For test [28], the target named is HLA-A*02:50. Nature of the test: IEDB peptide-MHC binding, purified MHC/competitive/fluorescence; filed as Kd, often an IC50 or EC50 that approximates it; ≥ and ≤ were set here for values at or beyond the usual limits of such assays. The following applies: source organism: Vibrio vulnificus YJ016.
Test [29] addresses HLA-C*04:01. The test is described as follows: IEDB peptide-MHC binding, purified MHC/direct/fluorescence; filed as Kd, often an IC50 or EC50 that approximates it; ≥ and ≤ were set here for values at or beyond the usual limits of such assays. To be noted: source organism: Shigella flexneri 2a str. 2457T.
Test [30] deals with HLA-C*08:02. The test is described as above. To be noted: source organism: Shigella flexneri 2a str. 2457T.
Test [31] has as its target HLA-A*01:01. Nature of the test: IEDB peptide-MHC binding, purified MHC/competitive/fluorescence; filed as Kd, often an IC50 or EC50 that approximates it; ≥ and ≤ were set here for values at or beyond the usual limits of such assays. The following applies: source organism: Shigella flexneri 2a str. 2457T.
Test [32] concerns the target HLA-B*35:01. The description is as above. The following applies: source organism: Shigella flexneri 2a str. 2457T.
Test [33] concerns the target HLA-B*58:01. The test is described as above. The following applies: source organism: Shigella flexneri 2a str. 2457T.
In test [34] the target is HLA-C*14:02. The test is described as follows: IEDB peptide-MHC binding, purified MHC/direct/fluorescence; filed as Kd, often an IC50 or EC50 that approximates it; ≥ and ≤ were set here for values at or beyond the usual limits of such assays. To be noted: source organism: Variola virus.
In test [35] the target is HLA-A*02:01. The test is described as follows: IEDB peptide-MHC binding, purified MHC/competitive/radioactivity; ≥ and ≤ were set here for values at or beyond the usual limits of such assays. To be noted: source organism: Hepatitis C virus (isolate H77).
Test [36] concerns the target HLA-A*02:02. Described as above. To be noted: source organism: Hepatitis C virus (isolate H77).
In test [37] the target is HLA-A*02:03. The description is as above. To be noted: source organism: Hepatitis C virus (isolate H77).
Test [38] concerns the target HLA-A*02:06. The test is described as above. To be noted: source organism: Hepatitis C virus (isolate H77).

For the sequence TVIDVNTGK, the dissociation constant (Kd) in test [1], in [2], in test [3] and in test [4] was no less than 5 µM each time.
As for ARHTPVNSW, the 50% inhibitory concentration (IC50) in test [5] was 338 nM.
Turning to GLKELGDWV, the Kd in test [6] is no less than 20 µM; in [7], 637 nM; in test [8], 2 nM; in test [9] it was 145 nM; in test [10], 9 nM; in test [11] it was 120 nM. Further, the Kd in test [12] is no less than 20 µM; in test [13], no less than 20 µM; in [14], no less than 20 µM; in test [15], no less than 20 µM; in [16], no less than 20 µM; in test [17], no less than 5 µM. In addition, the dissociation constant (Kd) in test [18], in test [19], in [20], in test [21], in test [22] and in [23] was no less than 20 µM in each case. In addition, the Kd is no less than 20 µM in test [24]; no less than 20 µM in test [25]; no less than 20 µM in test [26]; no less than 20 µM in test [27]; no more than 0.1 nM in test [28].
For the sequence MSPDNALIY, the dissociation constant Kd in test [29] is no less than 20 µM; in [30], no less than 20 µM; in test [31], 89.9 nM; in test [32] it was 7.2 nM; in test [33] it was 457 nM.
Turning to VIYEAVIHL, the Kd in test [34] was determined as 195 nM.
Turning to KLVGLGLNAV, the half-inhibitory concentration (IC50) in test [35] came out at 17 nM; in [36], 14 nM; in [37], 8.2 nM; in [38], 9 nM.
